This is an account of results in patent US8158376B2, “Bisubstrate fluorescent probe binding to protein kinases” (University of Tartu, priority 2006, dated 2012).

Like-named read-outs stand apart in the source and are kept apart here.

What all share (experiment): Kinase selectivity panel
Holding throughout (type): biochemical

One data set has as its target PRK2 (Homo sapiens, UniProt Q16513). The following applies: read-out: residual activity (%) PRK2. The procedure: (§1) The panel of kinases included all 52 kinases available for testing.
(§2) The assay of protein kinases was performed at 30° C. as described previously [Davies et al., Biochem. J. 351 (2000) 95; Murray et al., Biochem. J. 384 (2004) 477].

For a further data set, the target named is T1, PRAK (Homo sapiens, UniProt Q8IW41).
T1 sequence (Q8IW41 1-473): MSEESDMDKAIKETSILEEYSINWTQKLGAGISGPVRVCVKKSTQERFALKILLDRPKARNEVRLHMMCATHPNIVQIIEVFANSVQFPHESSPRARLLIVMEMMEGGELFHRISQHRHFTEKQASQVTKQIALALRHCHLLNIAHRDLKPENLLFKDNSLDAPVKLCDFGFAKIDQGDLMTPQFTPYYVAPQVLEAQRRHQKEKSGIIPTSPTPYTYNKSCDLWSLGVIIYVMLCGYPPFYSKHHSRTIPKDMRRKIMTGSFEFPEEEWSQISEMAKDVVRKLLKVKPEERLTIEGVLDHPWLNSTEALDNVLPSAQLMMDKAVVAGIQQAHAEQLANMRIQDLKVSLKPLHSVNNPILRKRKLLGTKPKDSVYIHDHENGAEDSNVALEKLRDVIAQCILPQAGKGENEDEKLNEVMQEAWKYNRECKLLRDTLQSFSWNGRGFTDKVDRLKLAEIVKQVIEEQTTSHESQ
The note with it: read-out: residual activity (%) PRAK. The procedure:
as §1, §2

A further data set concerns the target PKCa (Homo sapiens, UniProt P17252). The note with it: read-out: residual activity (%) PKCa. The procedure: as §1, §2
For a further data set, the target named is T2, SGK (Homo sapiens, UniProt O00141).
T2 sequence (O00141 1-431): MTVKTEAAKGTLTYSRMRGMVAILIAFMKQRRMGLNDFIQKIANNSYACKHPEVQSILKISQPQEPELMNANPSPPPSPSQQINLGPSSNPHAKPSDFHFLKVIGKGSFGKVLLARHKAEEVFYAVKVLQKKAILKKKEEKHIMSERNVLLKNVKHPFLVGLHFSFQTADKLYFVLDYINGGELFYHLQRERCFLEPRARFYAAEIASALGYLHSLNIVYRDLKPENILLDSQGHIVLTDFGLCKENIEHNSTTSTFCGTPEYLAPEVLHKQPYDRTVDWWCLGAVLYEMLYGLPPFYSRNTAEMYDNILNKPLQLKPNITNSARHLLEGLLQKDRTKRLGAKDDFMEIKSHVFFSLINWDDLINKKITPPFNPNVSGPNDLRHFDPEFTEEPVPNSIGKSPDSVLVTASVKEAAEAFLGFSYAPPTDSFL
The following applies: read-out: residual activity (%) SGK. The procedure: as §1, §2

For a further data set, the target named is MAPKAP-K3 (Homo sapiens, UniProt Q16644). The note with it: read-out: residual activity (%) MAPKAP-K3. The procedure:
as §1, §2

A further data set concerns the target PLK1 (Homo sapiens, UniProt P53350). The following applies: read-out: residual activity (%) PLK1. The procedure: as §1, §2
In another data set the target is MKK1 (Homo sapiens, UniProt Q02750). The note with it: read-out: residual activity (%) MKK1. The procedure:
as §1, §2

In a further data set the target is MNK2 (Homo sapiens, UniProt Q9HBH9). The following applies: read-out: residual activity (%) MNK2. The procedure: as §1, §2
The next data set deals with T3, NEK2a (Homo sapiens, UniProt P51955).
T3 sequence (P51955 1-445): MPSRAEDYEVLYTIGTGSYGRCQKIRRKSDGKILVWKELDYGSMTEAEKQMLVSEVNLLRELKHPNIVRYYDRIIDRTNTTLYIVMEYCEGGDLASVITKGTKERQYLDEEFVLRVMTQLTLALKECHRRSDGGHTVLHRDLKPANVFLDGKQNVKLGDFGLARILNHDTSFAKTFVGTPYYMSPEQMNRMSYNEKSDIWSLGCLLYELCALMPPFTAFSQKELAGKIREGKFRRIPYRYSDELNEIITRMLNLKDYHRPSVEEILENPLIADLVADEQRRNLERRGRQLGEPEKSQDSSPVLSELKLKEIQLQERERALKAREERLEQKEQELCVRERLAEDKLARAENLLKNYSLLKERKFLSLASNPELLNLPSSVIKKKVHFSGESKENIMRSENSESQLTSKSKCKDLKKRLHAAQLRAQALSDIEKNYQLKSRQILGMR
The following applies: read-out: residual activity (%) NEK2a. The procedure: as §1, §2

For another data set, the target named is T4, eEF2K (Homo sapiens, UniProt O00418).
T4 sequence (O00418 1-725): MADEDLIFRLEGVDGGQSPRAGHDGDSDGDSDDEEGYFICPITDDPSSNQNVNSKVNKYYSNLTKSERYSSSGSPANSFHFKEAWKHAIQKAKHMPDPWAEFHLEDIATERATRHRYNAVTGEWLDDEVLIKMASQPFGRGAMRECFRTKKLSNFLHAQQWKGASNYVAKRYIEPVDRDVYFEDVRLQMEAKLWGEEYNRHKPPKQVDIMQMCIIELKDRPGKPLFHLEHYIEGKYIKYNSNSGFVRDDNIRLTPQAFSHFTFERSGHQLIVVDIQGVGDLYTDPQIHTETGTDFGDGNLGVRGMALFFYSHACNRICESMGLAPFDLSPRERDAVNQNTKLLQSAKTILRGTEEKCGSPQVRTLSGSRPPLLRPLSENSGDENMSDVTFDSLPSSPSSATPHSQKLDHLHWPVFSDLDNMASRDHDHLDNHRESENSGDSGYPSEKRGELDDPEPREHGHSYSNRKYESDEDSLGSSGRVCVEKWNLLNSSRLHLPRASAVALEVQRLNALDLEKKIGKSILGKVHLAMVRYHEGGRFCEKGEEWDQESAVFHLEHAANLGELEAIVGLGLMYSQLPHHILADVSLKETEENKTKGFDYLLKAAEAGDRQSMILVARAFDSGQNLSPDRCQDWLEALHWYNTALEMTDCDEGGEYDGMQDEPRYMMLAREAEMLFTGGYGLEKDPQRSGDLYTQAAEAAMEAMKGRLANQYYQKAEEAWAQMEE
The note with it: read-out: residual activity (%) eEF2K. The procedure:
as §1, §2

Sequence of MNK2 (Q9HBH9 whole entry, species assumed): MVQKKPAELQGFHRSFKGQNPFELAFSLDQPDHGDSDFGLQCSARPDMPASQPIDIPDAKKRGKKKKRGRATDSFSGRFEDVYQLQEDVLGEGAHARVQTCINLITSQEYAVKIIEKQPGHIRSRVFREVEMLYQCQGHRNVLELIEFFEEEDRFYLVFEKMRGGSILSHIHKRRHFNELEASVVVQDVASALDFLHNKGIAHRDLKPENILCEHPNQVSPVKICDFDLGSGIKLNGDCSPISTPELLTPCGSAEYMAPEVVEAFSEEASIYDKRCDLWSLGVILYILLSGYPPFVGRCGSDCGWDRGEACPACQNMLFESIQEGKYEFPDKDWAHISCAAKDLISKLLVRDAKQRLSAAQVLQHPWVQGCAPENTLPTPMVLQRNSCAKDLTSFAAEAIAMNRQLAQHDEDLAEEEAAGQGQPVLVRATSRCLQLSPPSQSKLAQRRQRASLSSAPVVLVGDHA
Sequence of MAPKAP-K3 (Q16644 whole entry, species assumed): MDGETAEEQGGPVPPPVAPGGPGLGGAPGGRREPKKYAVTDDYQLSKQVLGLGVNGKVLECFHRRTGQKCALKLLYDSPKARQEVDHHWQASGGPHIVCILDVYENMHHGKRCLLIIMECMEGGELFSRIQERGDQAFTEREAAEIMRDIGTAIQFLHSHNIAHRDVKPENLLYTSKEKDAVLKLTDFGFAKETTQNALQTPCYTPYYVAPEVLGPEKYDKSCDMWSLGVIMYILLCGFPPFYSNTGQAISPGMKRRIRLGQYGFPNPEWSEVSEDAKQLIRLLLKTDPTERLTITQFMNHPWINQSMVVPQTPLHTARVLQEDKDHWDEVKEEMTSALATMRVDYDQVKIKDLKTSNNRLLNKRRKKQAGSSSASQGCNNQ
Sequence of PRK2 (Q16513 whole entry, species assumed): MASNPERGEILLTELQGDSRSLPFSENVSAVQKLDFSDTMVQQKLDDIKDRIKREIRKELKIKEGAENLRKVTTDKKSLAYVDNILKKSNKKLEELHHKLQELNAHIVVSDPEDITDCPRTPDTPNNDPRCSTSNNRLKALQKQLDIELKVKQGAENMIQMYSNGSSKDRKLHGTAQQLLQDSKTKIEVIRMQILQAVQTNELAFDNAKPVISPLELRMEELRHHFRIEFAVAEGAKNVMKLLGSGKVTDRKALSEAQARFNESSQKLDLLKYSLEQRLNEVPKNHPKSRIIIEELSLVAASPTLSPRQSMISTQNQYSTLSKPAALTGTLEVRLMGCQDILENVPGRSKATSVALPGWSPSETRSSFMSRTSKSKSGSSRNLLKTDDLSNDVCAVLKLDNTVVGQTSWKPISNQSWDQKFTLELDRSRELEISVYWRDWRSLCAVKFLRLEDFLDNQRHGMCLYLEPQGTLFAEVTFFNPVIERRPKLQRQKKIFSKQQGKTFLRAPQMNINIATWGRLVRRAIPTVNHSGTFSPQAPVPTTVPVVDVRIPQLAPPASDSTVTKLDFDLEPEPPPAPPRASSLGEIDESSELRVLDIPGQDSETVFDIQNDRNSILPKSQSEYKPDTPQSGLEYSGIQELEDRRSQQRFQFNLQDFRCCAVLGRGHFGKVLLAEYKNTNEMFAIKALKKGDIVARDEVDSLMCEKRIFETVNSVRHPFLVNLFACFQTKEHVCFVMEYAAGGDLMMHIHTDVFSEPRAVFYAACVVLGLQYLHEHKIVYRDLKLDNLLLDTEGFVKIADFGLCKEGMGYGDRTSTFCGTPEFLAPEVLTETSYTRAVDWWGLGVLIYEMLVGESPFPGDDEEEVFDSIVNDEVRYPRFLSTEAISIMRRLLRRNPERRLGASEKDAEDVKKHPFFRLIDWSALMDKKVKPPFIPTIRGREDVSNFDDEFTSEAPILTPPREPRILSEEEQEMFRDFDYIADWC
Sequence of MKK1 (Q02750 whole entry, species assumed): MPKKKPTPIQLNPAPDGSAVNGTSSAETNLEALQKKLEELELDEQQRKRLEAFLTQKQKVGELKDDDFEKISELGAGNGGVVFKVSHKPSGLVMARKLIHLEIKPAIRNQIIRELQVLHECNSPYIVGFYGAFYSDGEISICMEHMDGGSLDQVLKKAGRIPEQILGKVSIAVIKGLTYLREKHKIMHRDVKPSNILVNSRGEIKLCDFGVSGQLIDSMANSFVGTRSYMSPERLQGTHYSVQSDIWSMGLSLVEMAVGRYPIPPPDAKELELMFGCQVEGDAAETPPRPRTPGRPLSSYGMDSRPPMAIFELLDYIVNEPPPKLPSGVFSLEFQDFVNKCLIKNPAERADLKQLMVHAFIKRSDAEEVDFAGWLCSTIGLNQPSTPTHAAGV
Sequence of PLK1 (P53350 whole entry, species assumed): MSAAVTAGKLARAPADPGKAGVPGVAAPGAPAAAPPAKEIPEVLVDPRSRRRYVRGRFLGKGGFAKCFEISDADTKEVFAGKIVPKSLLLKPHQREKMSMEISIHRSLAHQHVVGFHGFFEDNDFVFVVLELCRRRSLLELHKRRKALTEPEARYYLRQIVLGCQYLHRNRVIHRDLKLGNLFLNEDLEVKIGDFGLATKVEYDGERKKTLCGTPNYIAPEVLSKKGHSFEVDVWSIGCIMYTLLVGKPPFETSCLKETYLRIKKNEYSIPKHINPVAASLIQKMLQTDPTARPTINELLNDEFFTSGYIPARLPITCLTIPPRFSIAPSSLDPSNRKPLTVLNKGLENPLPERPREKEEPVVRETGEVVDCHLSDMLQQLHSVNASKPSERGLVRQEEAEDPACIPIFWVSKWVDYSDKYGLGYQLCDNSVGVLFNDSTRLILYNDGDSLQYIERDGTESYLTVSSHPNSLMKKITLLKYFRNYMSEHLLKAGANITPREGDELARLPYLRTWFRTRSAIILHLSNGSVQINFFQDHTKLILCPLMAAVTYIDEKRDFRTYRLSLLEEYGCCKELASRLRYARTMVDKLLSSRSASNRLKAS

`N=C(N)NCCC[C@@H](NC(=O)[C@@H](CCCNC(=N)N)NC(=O)[C@@H](CCCNC(=N)N)NC(=O)[C@@H](CCCNC(=N)N)NC(=O)[C@@H](CCCNC(=N)N)NC(=O)[C@@H](CCCNC(=N)N)NC(=O)CCCCCNC(=O)[C@H]1O[C@@H](n2cnc3c(N)ncnc32)[C@H](O)[C@@H]1O)C(N)=O` [Compound 5, AdcAhx(D-Arg)6-NH2]: the remaining activity at 1 µM in the data set with PRK2 came out at 2%; in the data set with PRAK, 89%; with PKCa, 31%; with SGK it was 16%; with MAPKAP-K3 it was 67%; in the data set with PLK1 it was 81%. Besides, the remaining activity at 1 µM was determined as 77% with MKK1, 99% with MNK2, 82% with NEK2a and 92% with eEF2K.

For `N=C(N)NCCC[C@@H](NC(=O)[C@@H](CCCNC(=N)N)NC(=O)[C@@H](CCCNC(=N)N)NC(=O)[C@@H](CCCNC(=N)N)NC(=O)[C@@H](CCCNC(=N)N)NC(=O)[C@@H](CCCNC(=N)N)NC(=O)CCCCCNCCNS(=O)(=O)c1cccc2cnccc12)C(N)=O` [Compound 26, H9-Hex(D-Arg)6-NH2], the remaining activity at 1 µM was 2% in the data set with PRK2 (inhibitor 1 μM, ATP 5 μM); 97% in the data set with PRAK (inhibitor 1 μM, ATP 20 μM); 15% in the data set with PKCa (inhibitor 1 μM, ATP 20 μM); 1% with SGK (inhibitor 1 μM, ATP 20 μM); 69% with MAPKAP-K3 (inhibitor 1 μM, ATP 20 μM); 76% with PLK1 (inhibitor 1 μM, ATP 5 μM). Besides, the remaining activity at 1 µM in the data set with MKK1 (inhibitor 1 μM, ATP 5 μM) worked out at 84%; with MNK2 (inhibitor 1 μM, ATP 50 μM), 31%; with NEK2a (inhibitor 1 μM, ATP 50 μM), 98%; with eEF2K (inhibitor 1 μM, ATP 5 μM), 91%.
